Results taken from patent US11839642B2, “Anti-angiogenin peptides, compositions, and methods of use” (The Board of Regents of the University of Oklahoma, priority 2018, dated 2023).

Biological target: T1, angiogenin (Homo sapiens, UniProt P03950)
T1 construct: purchased R&D systems, Inc., Minneapolis
Assay: Affinity-selection (biopanning) of Ph.D.-12 phage library against angiogenin, DNA sequencing of plaques
Assay type: binding
Details: after fourth round of affinity-selection
Procedure: Phage affinity-selection (biopanning) procedure was performed by following the standard protocol with minor modifications (FIG. 1). The target protein angiogenin (R&D systems, Inc., Minneapolis) used for biopanning was diluted to 20, 4, 0.8 and 0.16 μg/mL in 0.1 M NaHCO3 (pH=8.6) in the first, second, third and fourth round, respectively. During each round, 400 μL of angiogenin with designated concentration, was added into a well (diameter is 15.6 mm) of the 24 well cell culture plate (Cat. #: 142475, Thermo Fisher Scientific), and incubated overnight at 4° C. with the lid on in a humidified container. Then the supernatant was pipetted out and the plate was firmly slapped face down on a paper towel to remove the residual solution. Afterwards, 500 μL of blocking buffer (5 mg/mL BSA, 0.1M NaHCO3) was added into the well and incubated for 3 h at 4° C., after which the supernatant was discarded. […]
A small amount (5 μL) of the above eluate mixture was diluted 10-fold with PBS buffer. […] The titer was calculated by this equation: titer=1000×N×M pfu/mL, where N and M are the dilution factor and the number of the blue phage plaques on a plate, respectively. […]

T1 sequence (P03950 25-147): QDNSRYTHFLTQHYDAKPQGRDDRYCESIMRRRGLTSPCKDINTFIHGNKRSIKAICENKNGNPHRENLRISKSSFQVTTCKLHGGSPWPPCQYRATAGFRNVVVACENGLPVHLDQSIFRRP

Sequence	repeats of the peptide sequence among 57 sequenced plaques
FHHPSIHDRHRH (PEPTIDE (1)..(12) Completely synthesized in the lab - Ph.D.-12 Phage Display Peptide Library) [FH peptide]	4 repeats
WPYWNHHSHNNV (PEPTIDE (1)..(12) Completely synthesized in the lab - Ph.D.-12 Phage Display Peptide Library) [WV peptide]	11 repeats
